Data taken from US20140287419A1, “Compositions Having Dicamba Decarboxylase Activity and Methods of Use” (priority 2013, published 2014).
Residue numbers refer to the chain shown, from its start. Names may count otherwise.

B1: SEQ ID NO:117: Design variant of SEQ ID NO: 95 (protein)
chain: MAKKPRIDMHSHFFPRISEQEAAKFDANHAPWLQVSAKGDTGSIMMGKNNFRPVYQALWDPAFRIEEMDAQGVDVQVTCATPVMFGYTWEANKAAQWAERMNDFALEFAAHNPQRIKVLAQVPLQDLDLACKEASRAVAAGHLGIQIGNHLGDKDLDDATLEAFLTHCANEDIPILVHPWDMMGGQRMKKWMLPVLVAAPAEVQLAILSLILSGAFERIPKSLKICFAGGGGSFAFLLGIVDLAWRHRDIVREDCPRPPSEYVDRFFVDSLVFNPGALELLVSVMGEDRVMLGSDYPFPTGEQKIGGLVLSSNLGESAKDKIISGNASKFFNINV
modifications: Dicamba decarboxylase variant clone DC.5.008
B2: SEQ ID NO:118: Design variant of SEQ ID NO: 95 (protein)
chain: MAKKPRIDMHSHFFPRISEQEAAKFDANHAPWLQVSAKGDTGSIMMGKNNFQPVYQALWDPAFRIEEMDAQGVDVQVTCATPVMFGYTWEANKAAQWAERMNDFALEFAAHNPQRIKVLAQVPLQDLDLACKEASRAVAAGHLGIQIGNHLGDKDLDDATLEAFLTHCANEDIPILVHGTDMMGGQRMKKWGLPWLVALAAEVQLAILSLILSGAFERIPKSLKICFSHGGGSFAFLLGLVDEAWRHVDIVREDCPRPPSEYVDRFFVDSVGNPGALELLVSVMGEDRVMLGSDYPHTTGEQKIGGLVLSSNLGESAKDKIISGNASKFFNINV
modifications: Dicamba decarboxylase variant clone DC.5.033
B3: SEQ ID NO:119: Design variant of SEQ ID NO: 95 (protein)
chain: B2 chain with T180W, P194Y, L199H, A200H, L237T, L240W, H297L
modifications: Dicamba decarboxylase variant cloneDC.5.034
B4: SEQ ID NO:120: Design variant of SEQ ID NO: 100 (protein)
chain: MAIIDCHGHYTTTPKGVETYRNAQKAAVAKDPSFKYEKGQVVVSDDEIRESIENNQLKMQRERGTDLTIFSPRSTAGGHHIGNEYTSQFWTEHQNDLIRRVCDLFPKNFAPVAQLPQSPGVDPAKSVPEIVRTVEQMGFIGINLNPDPSGGYWKDTSLADRAFYPIYEKMVEYDIPAMIHPRNACNDCFHTTGSHALGADTTGFQQLIMSDVFKDFPSLKIIIPHGGGAVPYHWGRFRGLMQDQGYAPLEESALKNIYFDTCVYHQRGIDLLLDIVPTQNILFASEMIGAVRGIDAETGHNFDDTKRYIDNNTALNAEEKAMIFEGNARRVFSRLKTD
modifications: Dicamba decarboxylase variant clone DC.12.002
B5: SEQ ID NO:121: Design variant of SEQ ID NO: 100 (protein)
chain: MAIIDCHGHYTTTPKGVEDYRNAQKAAVAKDPSFKGEKGQVVVSDDEIRESIENNQLKMQRERGTDLTIFSPRWDAGGHHIGNEYTSQFWTEHQNDLIRRVCDLFPKNFAPVAQLPQSPGVDPAKSVPEIVRTVEQMGFIGINLNPDPSGGYWKDTSLADRAFYPIYEKMVEYDIPAMIHPRLACNACFHTGLSVGLGADTTGFQQLIMSDVFKDFPSLKIIIPHGGGAVPYHWGRFRGLMQDQGYAPLEESALKNIYFDTCVYHQRGIDLLLDIVPTQNILFASEMIGAVRGIDPETGHNFDDTKRYIDNNTALNAEEKAMIFEGNARRVFSRLKTD
modifications: Dicamba decarboxylase variant clone DC.12.014
B6: N214Q: point mutation N214Q of SEQ ID NO:109 (protein)
chain: MAQGKVALEEHFAIPETLQDSAGFVPGDYWKELQHRLLDIQDTRLKLMDAHGIETMILSLNAPAVQAIPDRRKAIEIARRANDVLAEECAKRPDRFLAFAALPLQDPDAATEELQRCVNDLGFVGALVNGFSQEGDGQTPLYYDLPQYRPFWGEVEKLDVPFYLHPRNPLPQDSRIYDGHPWLLGPTWAFAQETAVHALRLMASGLFDEHPRLQIILGHMGEGLPYMMWRIDHRVAWVKLPPRYPAKRRFMDYFNENFHITTSGNFRTQTLIDAILEIGADRILFSTDWPFENIDHASDWFNATSIAEADRVKIGRTNARRLFKLDGA
modifications: Dicamba decarboxylase variant clone DC.4.032
B7: V235I: point mutation V235I of SEQ ID NO:109 (protein)
chain: B6 chain with Q214N, V235I
modifications: Dicamba decarboxylase variant clone DC.4.032
B8: L240A: point mutation L240A of SEQ ID NO:109 (protein)
chain: B6 chain with Q214N, L240A
modifications: Dicamba decarboxylase variant clone DC.4.032
B9: L240D: point mutation L240D of SEQ ID NO:109 (protein)
chain: B6 chain with Q214N, L240D
modifications: Dicamba decarboxylase variant clone DC.4.032

test: Detection of 4-chloro-3-methoxy phenol product by LC-MS/MS; assay type: biochemical; settings: purified protein
Method: The decarboxylated and chloro hydrolyzed product, 4-chloro-3-methoxy phenol (FIG. 1D), is measured using a LC-MS/MS analytical procedure. […] 10 ul is removed from the reaction mixture and mixed with 90 ul pre-chilled methanol followed by centrifugation at 14,000 rpm for 15 min at 4° C. 10 ul of the supernatant is then transferred into 170 ul ddH2O to achieve 5% methanol solution for injection. 50 ul of the prepared sample is injected into a 4000 Q Trap LC-MS/MS system for sample analysis. LC-MS/MS parameters are: Mobile Phase A, 2 mM ammonium acetate in water; Mobile Phase B, 2 mM ammonium acetate in methanol; Column, Aquasil, 100×2.1 mm, 3 μm, C18 column; Flow Rate, 0.6 ml/min. The MS/MS fragment 157/142 which is common to 4-chloro-3-methoxy phenol, 2-chloro-5-methoxy phenol, and 3-chloro-5-methoxy phenol is monitored at a retention time of 2.88 min.

Molecule	4-chloro-3-methoxy phenol product
B1	not detected
B2	not detected
B3	not detected
B4	not detected
B5	not detected

test: 14C assay with purified protein (14CO2 captured on Ca(OH)2 filter paper); assay type: biochemical; settings: [14C]-carboxyl-labeled dicamba

Molecule	CO2 product
B1	not detected
B2	not detected
B3	not detected
B4	not detected
B5	not detected

test: Detection of 2,5-DCA product by toluene capture or head-space GC/MS; assay type: biochemical; settings: purified protein, toluene capturing
Method: Alternatively, dicamba decarboxylase activity can be monitored by measuring decarboxylation products other than CO2 using product detection methods. The decarboxylation product of dicamba, 2,5-dichloro anisole or 2,5-DCA (FIG. 1C), is a volatile compound with a flash point of 21° C. To capture this volatile compound for detection, 140 ul of toluene solution is added on top of 1 ml reaction mixture to form a trapping layer in a 1.5 ml eppendorf tube. […] The reaction is kept still at room temperature overnight before being vortex mixed and centrifuged at 14,000 rpm for 15 minutes. The top toluene phase is carefully removed using a micropipette and transferred into a 12×32 mm polypropylene vial (Vial 11 mm) from MicroLiter Analytical Supplies, Inc. (catalog number 11-5300-100). The vial is sealed with Crimp seal (11 mm with FEP/Nat Rubber) from MicroLiter Analytical Supplies, Inc. (catalog number 11-0020A) using a E-Z Crimper™ 11 mm from Wheaton Inc. 1 ul of the toluene mixture is taken from the sealed vials and injected in splitless mode into a GC/MS system for sample analysis (Agilent GC/MS system with a 6890A GC, a 5973N MSD and a CTC CombiPAL auto-sampler or with a 7890A GC, a 5975C MSD and an Agilent GC Sampler 80 auto-sampler). The GC parameters are: Agilent DB-5MS column (30 m length, 0.25 mm diameter, 0.25 um film) or equivalent; The GC inlet temperature, 250° C.; Carry gas, helium in constant flow mode (1.2 mL/min); The GC oven temperature program, initial temperature at 70° C. for 1 min, ramping to 200° C. at 15° C./min, and then ramping to 250° C. at 30° C./min. MS data acquisition is done in SIM (selected ion monitoring) mode, monitoring the positive ion at M/Z 176 for the molecular ion of […]. The solvent delay for MS acquisition is set at 4 min. Another method for detection of 2,5-DCA is a head-space GC/MS method. Briefly, reaction mixtures in 500 ul reaction volume are prepared in 1.5 ml×32 mm glass vials (Microliter Analytical Supplies, Cat#11-1200) for head space analysis. Glass vials are sealed with magnetic cap from MicroLiter Analytical Supplies, Inc. (catalog number 11-0030AT) using a E-Z Crimper™ 11 mm from Wheaton Industries Inc. The reaction is carried out at room temperature for various amount of time and stopped by heating at 95° C. for 5 min. The reaction vial is transferred to a agitator for incubation at 80° C. for 5 min at 500 rpm. With a syringe preheated at 80° C., 1000 uL of head space is injected with sample fill speed at 100 uL/sec. GC/MS parameters for headspace analysis are the same as for liquid sample analysis.

Molecule	2,5-DCA product
B1	detected
B2	detected
B3	detected
B4	detected
B5	detected

test: Detection of 2,5-DCP product by GC/MS; assay type: biochemical; settings: purified protein
Method: The decarboxylated and demethylated product of dicamba, 2,5-dichloro phenol or 2,5-DCP (FIG. 1E) is measured using a GC/MS analytical procedure with either liquid injection after liquid/liquid extraction using toluene as the extraction solvent or gas injection using head space method. The head space sample analysis is carried out on an Agilent GC/MS system with a 6890A GC, a 5973N MSD and a CTC CombiPAL auto-sampler or with a 7890A GC, a 5975C MSD and an Agilent GC Sampler 80 auto-sampler with Phenomenex ZB-MultiResidue-1 column (30 m length, 0.25 mm diameter, 0.25 um film) or equivalent. GC/MS parameters are: GC inlet temperature, 200° C.; Carry gas, helium in constant flow mode (1.2 mL/min); Oven temperature program, 70° C. for 1 min and then ramp to 275° C. at 40° C./min. […] The reaction vial is transferred to a agitator for incubation at 90° C. for 4 min at 500 rpm. With a syringe preheated at 110° C., 1000 uL of head space is injected with sample fill speed at 100 uL/sec. A 2-mm diameter liner is used in sample inlet. The MS data acquisition is done in SIM (selected ion monitoring) mode. The positive ion at M/Z 162 for the molecular ion of 2,-5-DCP is monitored at retention time of 4.06 min. Solvent delay for MS acquisition is set at 3 min. GC/MS parameters for liquid sample analysis are the same as those for head space analysis, except that the volume of liquid injection is 1 uL.

Molecule	2,5-DCP product
B1	not detected
B2	not detected
B3	not detected
B4	not detected
B5	not detected

test: Saturation mutagenesis of SEQ ID NO:109, dicamba decarboxylation activity of point mutants; settings: dicamba decarboxylation activity of point mutants of SEQ ID NO: 109 (NNK saturation mutagenesis), relative to the unchanged template

Molecule	Average Activity (Fold of SEQ ID NO: 109)
B6	1.8 Fold of SEQ ID NO: 109
B7	1.8 Fold of SEQ ID NO: 109
B8	2.3 Fold of SEQ ID NO: 109
B9	2.2 Fold of SEQ ID NO: 109

same assay, conditions: dicamba decarboxylation activity of single point mutants of SEQ ID NO:109, relative to unchanged template

Molecule	Average Activity (Fold of SEQ ID NO: 109)
B6	1.8 Fold of SEQ ID NO: 109
B7	1.8 Fold of SEQ ID NO: 109

test: Dicamba decarboxylation activity of computationally designed protein variants; settings: native protein or designed variant versus parent

Molecule	Dicamba Decarboxylase Activity
B1	have dicamba decarboxylase activity
B2	have dicamba decarboxylase activity
B3	have dicamba decarboxylase activity
B4	have dicamba decarboxylase activity
B5	have dicamba decarboxylase activity
